# Tests used:
# [1] = substrate: CCCCCCCC/C=C\CCCCCCCC(=O)OC[C@H](COP(=O)([O-])OCC[N+](C)(C)C)OC(=O)CCCCCCC/C=C\CCCCCCCC; assay: radiochemical PC:MLCL transacylase assay, TLC and scintillation counting, Lineweaver-Burk; format: biochemical, Mus musculus; settings: labelled compound (3H), acyl donor 0-200 μM, acceptor MLCL 100 μM (methods text: 40 μM final), pH 8, 37 °C, 2 mM DTT, 0.1% Nonidet P-40, enzyme on anti-HA beads, apparent
# Source text: (§1) radiochemical PC:MLCL transacylase assay, TLC and scintillation counting, Lineweaver-Burk on PLAAT1
# [2] = substrate: CCCCCCCCCCCCCCCCCC(=O)OC[C@H](COP(=O)([O-])OCC[N+](C)(C)C)OC(=O)CCCCCCCCCCCCCCCCC; assay: as above; format: biochemical, Mus musculus; settings: labelled compound (3H), acyl donor 0-200 μM, acceptor MLCL 100 μM (methods text: 40 μM final), pH 8, 37 °C, 2 mM DTT, 0.1% Nonidet P-40, enzyme on anti-HA beads, apparent
# Source text: as §1
protein,measurement,setting,value
"PLAAT1 (Mus musculus) (protein, complete coding region; C-terminal 6xHis, HA-tagged; adenoviral expression in HEK-293; immunopurified on anti-HA beads) MAVNDCFSLTYPHNPHPGDLIEVFRPCYQHWALYLGDGYVINIAPIDGIRSSFTSAKSVFSTKALVKMQLLKDVVGNDTYRINNKYDTTYPPLPVEEVIQRSEFPIGQEVAYDLLVNNCEHFVTLLRYGEGVSEQANRAIGTIGLVAAGIDIFTFLGLFPKRQRTKY",Km,[1],16 µM
same,Vmax,[1],0.61 µmol/min/mg
same,Km,[2],126 µM
same,Vmax,[2],1.61 µmol/min/mg
